Experimental data: patent US20060263331A1, “Therapeutic use of tumor necrosis factor-alpha mutein” (priority 2002, published 2006)

Legend:
Colon Cancer = experiment: Clinical monotherapy of rhTNFm1, colon cancer; type: in vivo, human; details: 7 patients
Description: (§1) Patients were selected based on the following criteria: i) measurable, objective tumor; ii) Karnofsky performance status (KPS)≧60; iii) age 18-75; iv) major organs in basically normal condition; v) no chemotherapy, radiotherapy and biologic therapy within the last month; vi) predicted ≧3 mon. survival; and vii) with patient's informed consent signed.
(§2) Patients were excluded based on the following criteria: i) with history of allergic reactions to TNF or its derivatives; ii) pregnant or lactating women; iii) major organs with obvious damages or malfunction; iv) in ≧38° C. fever; v) with obvious tendency to haemorrhage; vi) with history of hypo- or hypertension; vii) with serious albuminemia; and viii) with strong tendency of disobedience or resistance.
(§3) Patients were removed from the evaluation if any of the following conditions apply: i) treatment was not completed according to the protocol; ii) incomplete records; and iii) treatment using cancer therapies not in the protocol. However, patients who withdrew due to adverse reactions to the therapy were still included in the evaluation.
(§4) The results of the treatment of tumors were evaluated based the following criteria: i) complete response (CR)—complete disappearance of observable pathological changes for at least 4 weeks; ii) partial response (PR)—reduction by ≧50% in tumor size measured by the product of the maximum circular and vertical dimensions for at least 4 weeks; iii) minimum response (MR)—reduction by >25% but <50% in tumor size measured by the product of the maximum circular and vertical dimensions for at least 4 weeks; iv) stabilized (SD)—reduction by ≦25% but without increase by >25% in tumor size measured by the product of the maximum circular and vertical dimensions for at least 4 weeks; and progression (PD): increase by >25% in tumor size in one or more sites.
(§5) Patients rested on day 1 and 2. The treatment cycle was 3-4 weeks.

Hodgkin's disease = experiment: Clinical monotherapy of rhTNFm1, Hodgkin's disease; type: in vivo, human; details: for Efficacy CR / Efficacy MR / Efficacy PD / Efficacy PR / Efficacy SD: patient count
Description: as §1, §2, §3, §4, §5
Table II summaries results of the treatment of patients with malignant lymphoma, classified according to Hodgkin's disease and non-Hodgkin's lymphoma. Within each of category of lymphoma, patients were further classified into two groups: chemo-naïve and chemo-refractory. The chemo-naïve patients were patients who had never been treated with any anti-cancer agent previously whereas chemo-refractory patients were ones who failed treatment with one or more anti-cancer agent.

Breast Cancer = experiment: Clinical monotherapy of rhTNFm1, breast cancer; type: in vivo, human; details: 10 patients
Description: as §1, §2, §3, §4, §5

Malignant melanoma = experiment: Clinical monotherapy of rhTNFm1, malignant melanoma; type: in vivo, human; details: 18 patients
Description: as §1, §2, §3, §4, §5

[1] = KPS of patients treated with rhTNFm1 alone; type: in vivo, human; details: P=0.013, particularly malignant pleural effusion
Description: as §1, §5

[2] = in vivo
Description: Patients with the following malignancy: malignant lymphoma, lung cancer, melanoma, breast cancer, liver cancer, kidney cancer, colon cancer, pleural effusion and ascites were treated with a monotherapy of the recombinant protein rhTNFm1 described above.
Patients were treated with rhTNFm1 at 600,000-900,000 unit/m^2 (about 1-50 μg/m^2 depending on the specific bioactivity of a particular lot) per day, 5 times a week (day 3-7) via i.v. injection. Patients rested on day 1 and 2. The treatment cycle was 3-4 weeks.

Lung Cancer = experiment: Clinical monotherapy of rhTNFm1, lung cancer; type: in vivo, human
Description: as §1, §2, §3, §4, §5

malignant tumors = experiment: Clinical monotherapy of rhTNFm1, all malignant tumors (Total); type: in vivo, human; details: Total of tumor indications, 141 patients
Description: as §1, §2, §3, §4, §5

[3] = Chemo-naïve Grade I & II, 0 patients
[4] = Chemo-naïve Grade III & IV, 0 patients
[5] = Lung Cancer, 20 patients, monotherapy
[6] = patient count, Lung Cancer, 20 patients, monotherapy

B1: rhTNFm1: Recombinant human TNF-α mutant 1 expressed in E. coli; SEQ ID NO: 3 with N-terminal methionine (FIG. 1, 2) (protein)
chain: MRKRKPVAHVVANPQAEGQLQWLNRRANALLANGVELRDNQLVVPSEGLYLIYSQVLFKGQGCPSTHVLLTHTISRIAVSYQTKVNLLSAIKSPCQRETPEGAEAKPWYEPIYLGGVFQLEKGDRLSAEINRPDYLDFAESGQVYFGIIAQ
modifications: rhTNFm1 with Met
Colon Cancer
  Response Rate (%) CR: 0.00%
  Response Rate (%) CR + PR: 0.00%
  Response Rate (%) PR: 0.00%
Colon Cancer; patient count
  Efficacy CR: 0
  Efficacy MR: 0
  Efficacy PD: 4
  Efficacy PR: 0
  Efficacy SD: 3
Hodgkin's disease; [3]
  Response Rate (%) CR: 0%
  Response Rate (%) CR + PR: 0%
  Response Rate (%) PR: 0%
  Efficacy CR: 0
  Efficacy MR: 0
  Efficacy PD: 0
  Efficacy PR: 0
  Efficacy SD: 0
Hodgkin's disease; [4]
  Response Rate (%) CR: 0%
  Response Rate (%) CR + PR: 0%
  Response Rate (%) PR: 0%
  Efficacy CR: 0
  Efficacy MR: 0
  Efficacy PD: 0
  Efficacy PR: 0
  Efficacy SD: 0
Hodgkin's disease; Chemo-naïve Total, 0 patients
  Response Rate (%) CR: 0%
  Response Rate (%) CR + PR: 0%
  Response Rate (%) PR: 0%
  Efficacy CR: 0
  Efficacy MR: 0
  Efficacy PD: 0
  Efficacy PR: 0
  Efficacy SD: 0
Hodgkin's disease; Chemo-refractory, 6 patients
  Response Rate (%) CR: 0%
  Response Rate (%) CR + PR: 0%
  Response Rate (%) PR: 0%
  Efficacy CR: 0
  Efficacy MR: 0
  Efficacy PD: 1
  Efficacy PR: 0
  Efficacy SD: 5
Breast Cancer
  Response Rate (%) CR: 0.00%
  Response Rate (%) CR + PR: 0.00%
  Response Rate (%) PR: 0.00%
Breast Cancer; patient count
  Efficacy CR: 0
  Efficacy MR: 0
  Efficacy PD: 4
  Efficacy PR: 0
  Efficacy SD: 6
Malignant melanoma
  Response Rate (%) CR: 0.00%
  Response Rate (%) CR + PR: 11.11%
  Response Rate (%) PR: 11.11%
Malignant melanoma; patient count
  Efficacy CR: 0
  Efficacy MR: 3
  Efficacy PD: 3
  Efficacy PR: 2
  Efficacy SD: 10
[1]
  KPS compared to that prior to the treatment: significantly improved
[2]
  adverse effects compared to wild type TNF-α: much fewer and weaker adverse effects
  duration of chill: ≤ 30 min
  duration of chills: no more than half an hour
  duration of fever: no more than half an hour
  fever grade during the treatment: Grade I
  highest body temperature during the treatment: 37.2 °C
  patients with 3rd degree fever: two
  patients with chills: 23%
  patients with fever below the 2nd degree: About 38%
  patients with mild chills: 11%
  patients with slight chills: 12%
  time of occurrence of chills after the administration: ≤ 30 min
  time of occurrence of fever post administration: 1 to 2 h
[2]; iv
  adverse reactions during the treatment: slight asthenia
Lung Cancer; [5]
  Response Rate (%) CR: 0.00%
  Response Rate (%) CR + PR: 5.00%
  Response Rate (%) PR: 5.00%
Lung Cancer; one lung cancer patient
  pleural fluid, reexamination about 1 month later: little pleural fluid remained
  tumor diameter, reexamination about 1 month later, CT scanning: 3.5 cm
Lung Cancer; one lung cancer patient, before 5 cm
  tumor diameter after the treatment, CT scanning: 2.5 cm
Lung Cancer; one lung cancer patient, before 40
  quality of life score after the treatment: 53
Lung Cancer; one lung cancer patient, before 70
  KPS after the treatment: 90
Lung Cancer; one lung cancer patient, before a large amount of pleural fluid
  pleural fluid after the treatment: small amount of pleural fluid remained
Lung Cancer; [6]
  Efficacy CR: 0
  Efficacy MR: 2
  Efficacy PD: 4
  Efficacy PR: 1
  Efficacy SD: 13
Malignant tumors
  Response Rate (%) CR: 1.42%
  Response Rate (%) CR + PR: 16.31%
  Response Rate (%) PR: 14.89%
Malignant tumors; patient count
  Efficacy CR: 2
  Efficacy MR: 14
  Efficacy PD: 29
  Efficacy PR: 21
  Efficacy SD: 75
